Test results: patent US20220106391A1

Legend:
NGF (species not stated) = assay: cell-based or functional assay
rat NGF (rat) = rat NGF (rat) (UniProt P25427); assay: cell-based or functional assay
[1] = target: canine beta-NGF (cNGF) (canine); assay: SPR (Biacore), cNGF binding
[2] = target: canine beta-NGF (cNGF) (canine); assay: SPR (Biacore), cNGF binding; KD column of Table 7

Chain of rat NGF (rat) (P25427 122-241 limits assumed): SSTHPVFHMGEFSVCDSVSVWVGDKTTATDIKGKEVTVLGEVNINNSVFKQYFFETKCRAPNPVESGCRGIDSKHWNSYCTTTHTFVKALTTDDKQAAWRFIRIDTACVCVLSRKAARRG
Chain of canine beta-NGF (cNGF) (canine) (Q29074 110-229 N171T limits assumed): as the sequence (P25427 122-241 limits assumed) above, with T3S, M9R, T37M, A60D, N62T, E65D, T92M, D94G, A117G, G120A counted along it

B1: ZTS-182m6 (antibody, V domains shown)
VH: EVQLVESGGDLARPGGSLKLSCVVSGFTLTQYGINWVRQAPGKGLQWVTVIWATGATDYNSALKSRFTVSRDNAMNTVYLQMNSLRVEDTAVYYCARDGWWYATSWYFDVWGQGTLVTVSS
VL: DIVMTQTPLSLSVSPGEPASISCKASQDINHYLNWFRQKPDGTVKLLIYYTTRLQAGVPSRFSGSGSGTDFTLRISRVEADDAGVYYCQQGDHFPRTFGQGT
B1 was tested, and the IC50 nM (TF-1 proliferation inhibition, NGF 2.0 ng/ml) (NGF (species not stated)) was 0.087 nM, the IC50 µg/ml (TF-1 proliferation inhibition, NGF 2.0 ng/ml) (NGF (species not stated)) was 0.0131 µg/mL and the IC50 nM (inhibition of neurite outgrowth, PC12 cells, rat NGF 10 ng/ml; Repeat 1) (rat NGF (rat)) was 0.26 nM. It also gave an IC50 nM (inhibition of neurite outgrowth, PC12 cells, rat NGF 10 ng/ml; Repeat 2) (rat NGF (rat)) of 0.24 nM, an IC50 µg/ml (inhibition of neurite outgrowth, PC12 cells, rat NGF 10 ng/ml; Repeat 1) (rat NGF (rat)) of 0.039 µg/mL and an IC50 µg/ml (inhibition of neurite outgrowth, PC12 cells, rat NGF 10 ng/ml; Repeat 2) (rat NGF (rat)) of 0.035 µg/mL. The Kd [1] was 0.00434 nM, the koff [1] was 1.54e-08 s⁻¹ and the kon [1] was 3560 M⁻¹ s⁻¹. For the same binder, the Kd [2] was 0.00434 nM.
